Source: patent US20250152742A1, “COMPOSITIONS AND METHODS FOR NEUROLOGICAL DISEASES” (Trames Bio, Inc., priority 2022, published 2025)

Test system: engineered chimeric receptor SEQ ID NO: 33 and its mutants (human α7-nAChR ligand binding domain / human GlyRα1 ion pore domain) in Lenti-X 293T cells
Assay: YFP fluorescence quenching anion reporter plate reader assay (percent quench, EC50)
Format: cell-based
Conditions: for YFP fluorescence quenching using CNL001 (percent quench): receptor named in row; for YFP fluorescence quenching using Varenicline, 3 nM var: ligand Varenicline 3 nM; for YFP fluorescence quenching using Varenicline, 30 nM var: ligand Varenicline 30 nM; for YFP fluorescence quenching using Varenicline, 300 nM var: ligand Varenicline 300 nM; for YFP fluorescence quenching using Varenicline, 500 nM var: ligand Varenicline 500 nM; for YFP fluorescence quenching using Varenicline, 1 uM var: ligand Varenicline 1 uM
Excerpt: To screen these mutant LGICs for those having novel response profiles to ligands, an anion reporter assay was developed to assess the function of the LGICs in a high throughput format. In this assay, cells expressing a YFP reporter whose fluorescence is quenched in the presence of anion are transfected with DNA encoding the channel of interest. Upon exposure to ligand, channels that are activated will flux anion, resulting in a dose-dependent quench of the YFP that can be detected on a plate reader. The greater the quench signal (i.e., the more positive the value), the higher the ligand activity on the receptor is.
Lenti-X 293T cells (LX293T, Clontech) were maintained in DMEM containing 10% FBS and 1% penicillin/streptomycin (Invitrogen). […] Two days before assay, cells were split at a density of 20,000 cells/well in a 96-well tissue culture plate coated with poly-d lysine (Thermo Scientific). The next day, the cells were transiently transfected with 0.1 μg of DNA per well using standard Fugene protocol (Promega). On the day of assay, cells were washed 2 times in 1X extracellular solution (1X ECS: 140 mM NaCl, 5 mM KCl, 1 mM MgCl2, 2 mM CaCl2, 10 mM HEPES, 10 mM glucose, pH 7.2, mOsms 300). After the last wash, 100 μL of 1X ECS was added to the wells and the plate was incubated at 37° C. for 30 min. While incubating the plate, the drugs were diluted to a 2X concentration in 1X ECS-Nal (same components as 1X ECS except the 140 mM NaCl was replaced by 140 mM Nal). The plates were then read on a Flexstation3 (Molecular Devices). Each well, 8 wells at a time, of the plate is read for 2 min using a Flexstation3 (Molecular Devices) as follows: 1) a baseline YFP fluorescence is read for 17 sec, 2) 100 μL of ligand is added, and 3) the changes in YFP fluorescence are then measured every 1.3 sec for 1 minute and 43 seconds. The percent quench is calculated from the average fluorescence of the last 10 seconds of the read divided by the baseline average of the first 15 seconds prior to the ligand addition.
FIGS. 1A-1J provide heat maps of the percent quench of YFP fluorescence following stimulation by various doses of either acetylcholine or the non-native ligand as indicated in the Figures. CODA71 (SEQ ID NO: 33) was used as a control, and CODA75 (SEQ ID NO: 29, a non-responding chimeric engineered receptor) was used as the negative control. Quenching of the fluorescence signal, as indicated by blue shaded cells, indicate the level of engineered receptor activation by the non-native ligand at that concentration.

B1: CODA325: engineered receptor: L131G in SEQ ID NO: 33 (protein)
chain: MRCSPGGVWLALAASLLHVSLQGEFQRKLYKELVKNYNPLERPVANDSQPLTVYFSLSLLQIMDVDEKNQVLTTNIWLQMSWTDHYLQWNVSEYPGVKTVRFPDGQIWKPDILLYNSADERFDATFHTNVGVNSSGHCQYLPPGIFKSSCPMDLKNFPMDVQTCKLKFGSWSYGGWSLDLQMQEADISGYIPNGEWDLVGIPGKRSERFYECCKEPYPDVTFTVTMRRRMGYYLIQMYIPSLLIVILSWISFWINMDAAPARVGLGITTVLTMTTQSSGSRASLPKVSYVKAIDIWMAVCLLFVFSALLEYAAVNFVSRQHKELLRFRRKRRHHKSPMLNLFQEDEAGEGRFNFSAYGMGPACLQAKDGISVKGANNSNTTNPPPAPSKSPEEMRKLFIQRAKKIDKISRIGFPMAFLIFNMFYWIIYKIVRREDVHNQ
modifications: synthetic sequence of chimeric LGIC
1 nM CNL001, first column so headed
  YFP fluorescence quenching using CNL001 (percent quench): 74.429%
1 nM CNL001, second column so headed
  YFP fluorescence quenching using CNL001 (percent quench): 78.715%
3 nM brd (TC-5619/Bradanicline)
  YFP fluorescence quenching using TC-5619/Bradanicline (percent quench): 68.45%
10 nM CNL001, first column so headed
  YFP fluorescence quenching using CNL001 (percent quench): 79.033%
10 nM CNL001, second column so headed
  YFP fluorescence quenching using CNL001 (percent quench): 79.322%
30 nM TC-6683
  YFP fluorescence quenching using TC-6683 (percent quench): −21.27%
30 nM brd (TC-5619/Bradanicline)
  YFP fluorescence quenching using TC-5619/Bradanicline (percent quench): 76.95%
50 nM CNL001, first column so headed
  YFP fluorescence quenching using CNL001 (percent quench): 79.966%
50 nM CNL001, second column so headed
  YFP fluorescence quenching using CNL001 (percent quench): 80.091%
50 nM abt (ABT-126)
  YFP fluorescence quenching using ABT-126 (percent quench): −17.39%
100 nM CNL001, first column so headed
  YFP fluorescence quenching using CNL001 (percent quench): 81%
100 nM CNL001, second column so headed
  YFP fluorescence quenching using CNL001 (percent quench): 79.701%
100 nM CNL002
  YFP fluorescence quenching (percent quench): 45.62%
100 nM abt (ABT-126)
  YFP fluorescence quenching using ABT-126 (percent quench): 6.89%
100 nM azd0328
  YFP fluorescence quenching using AZD-0328 (percent quench): 79.75%
300 nM TC-6683
  YFP fluorescence quenching using TC-6683 (percent quench): −18.33%
300 nM abt (ABT-126)
  YFP fluorescence quenching using ABT-126 (percent quench): 38.65%
300 nM azd0328
  YFP fluorescence quenching using AZD-0328 (percent quench): 80.62%
300 nM brd (TC-5619/Bradanicline)
  YFP fluorescence quenching using TC-5619/Bradanicline (percent quench): 77.1%
1 uM CNL001, first column so headed
  YFP fluorescence quenching using CNL001 (percent quench): 79.289%
1 uM CNL001, second column so headed
  YFP fluorescence quenching using CNL001 (percent quench): 80.581%
1 uM CNL002
  YFP fluorescence quenching (percent quench): 74.72%
1 uM abt (ABT-126)
  YFP fluorescence quenching using ABT-126 (percent quench): 45.82%
3 uM TC-6683
  YFP fluorescence quenching using TC-6683 (percent quench): −7.03%
10 uM ach (acetylcholine)
  YFP fluorescence quenching (percent quench): 5.66%
30 uM CNL002
  YFP fluorescence quenching (percent quench): 77.4%
30 uM TC-6683
  YFP fluorescence quenching using TC-6683 (percent quench): 56.84%
30 uM azd0328
  YFP fluorescence quenching using AZD-0328 (percent quench): 80.19%
100 uM TC-6683
  YFP fluorescence quenching using TC-6683 (percent quench): 64.51%
100 uM ach (acetylcholine)
  YFP fluorescence quenching (percent quench): 74.07%
1 mM ach (acetylcholine)
  YFP fluorescence quenching (percent quench): 62.65%
3 mM ach (acetylcholine)
  YFP fluorescence quenching (percent quench): 69.49%
Ligand Facinicline 30 nM
  YFP fluorescence quenching using Facinicline, 30 nM fac: 75.75
Ligand Facinicline 300 nM
  YFP fluorescence quenching using Facinicline, 300 nM fac: 78.01
Ligand Facinicline 30 uM
  YFP fluorescence quenching using Facinicline, 30 uM fac: 76.61
Ligand TC-6987 1 uM
  YFP fluorescence quenching using TC-6987, 1 uM tc6987: 64.59
Ligand TC-6987 10 uM
  YFP fluorescence quenching using TC-6987, 10 uM tc6987: 76.28
Ligand TC-6987 500 uM
  YFP fluorescence quenching using TC-6987, 500 uM tc6987: 70.95
First column
  YFP fluorescence quenching using Varenicline, 3 nM var: −12.241
  YFP fluorescence quenching using Varenicline, 30 nM var: 75.334
  YFP fluorescence quenching using Varenicline, 300 nM var: 78.305
  YFP fluorescence quenching using Varenicline, 500 nM var: 75.936
  YFP fluorescence quenching using Varenicline, 1 uM var: 77.805
Second column
  YFP fluorescence quenching using Varenicline, 3 nM var: −9.415
  YFP fluorescence quenching using Varenicline, 30 nM var: 72.278
  YFP fluorescence quenching using Varenicline, 300 nM var: 77.83
  YFP fluorescence quenching using Varenicline, 500 nM var: 76.788
  YFP fluorescence quenching using Varenicline, 1 uM var: 77.352
